B1: Catenin beta-1 (Homo sapiens), P35222 (parent)
chain: MATQADLMELDMAMEPDRKAAVSHWQQQSYLDSGIHSGATTTAPSLSGKGNPEEEDVDTSQVLYEWEQGFSQSFTQEQVADIDGQYAMTRAQRVRAAMFPETLDEGMQIPSTQFDAAHPTNVQRLAEPSQMLKHAVVNLINYQDDAELATRAIPELTKLLNDEDQVVVNKAAVMVHQLSKKEASRHAIMRSPQMVSAIVRTMQNTNDVETARCTAGTLHNLSHHREGLLAIFKSGGIPALVKMLGSPVDSVLFYAITTLHNLLLHQEGAKMAVRLAGGLQKMVALLNKTNVKFLAITTDCLQILAYGNQESKLIILASGGPQALVNIMRTYTYEKLLWTTSRVLKVLSVCSSNKPAIVEAGGMQALGLHLTDPSQRLVQNCLWTLRNLSDAATKQEGMEGLLGTLVQLLGSDDINVVTCAAGILSNLTCNNYKNKMMVCQVGGIEALVRTVLRAGDREDITEPAICALRHLTSRHQEAEMAQNAVRLHYGLPVVVKLLHPPSHWPLIKATVGLIRNLALCPANHAPLREQGAIPRLVQLLVRAHQDTQRRTSMGGTQQQFVEGVRMEEIVEGCTGALHILARDVHNRIVIRGLNTIPLFVQLLYSPIENIQRVAAGVLCELAQDKEAAEAIEAEGATAPLTELLHSRNEGVATYAAAVLFRMSEDKPQDYKKRLSVELTSSLFRTEPMAWNETADLGLDIGAQGEPLGYRQDDPSYRSFHSGGYGQDALGMDPMMEHEMGGHHPGADYPVDGLPDLGHAQDLMDGLPPGDSNQLAWFDTDL

Variants of: B1
Settings: with runx3_human RUNX3, Q13761
Sequence of runx3_human RUNX3, Q13761 (Q13761 whole entry): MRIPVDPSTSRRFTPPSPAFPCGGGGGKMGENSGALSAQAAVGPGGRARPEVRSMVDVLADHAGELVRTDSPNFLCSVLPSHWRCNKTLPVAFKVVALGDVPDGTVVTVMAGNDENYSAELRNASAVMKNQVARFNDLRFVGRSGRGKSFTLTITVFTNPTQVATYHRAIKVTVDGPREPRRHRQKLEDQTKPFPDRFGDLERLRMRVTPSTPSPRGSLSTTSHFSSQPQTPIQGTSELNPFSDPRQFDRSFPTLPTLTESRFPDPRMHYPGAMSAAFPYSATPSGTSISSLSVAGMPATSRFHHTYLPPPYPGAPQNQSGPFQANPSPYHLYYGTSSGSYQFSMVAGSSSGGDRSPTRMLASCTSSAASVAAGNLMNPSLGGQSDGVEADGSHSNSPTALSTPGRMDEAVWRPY

Variant | effect of a mutation on the interaction
S33Y | increasing interaction

— IntAct's records for PubMed 18772112
